{
  "source": "paper PMC9366932",
  "origin": "cited, not measured here",
  "molecular_target": "Asp309 (UniProt position 309, LIAAPDTMSVS)",
  "data": [
    {"substance": "Aromatase (cytochrome P450 19A1), recombinant form referred to as aromatase WT (Homo sapiens)", "values": [
      {"measurement": "pKa", "result": 8.2}
    ]}
  ]
}
